Literature values in article PMC5488128 (CPT: Pharmacometrics & Systems Pharmacology, 2017).

Tests used:
[1] = subcutaneously applied, tested up to 30U
[2] = system: glucose infusion rate (GIR); conditions: type-1 patients, up to 90U insulin Lispro, GIR recording time of 12 h

Substance	dose proportionality of exposure [1]	ED50 [2]
RHI: subcutaneously (s.c.) administered regular human insulin	dose‐proportional	
insulin lispro: prandial insulin analog, comparator in clamp study NCT02470637		51 U
